Test results from patent US20130064836A1 (Novartis, published 2013).
Positions count from the first letter of the chain named. Read-outs that look alike come from different tables or passages of the source.

T1: cynomolgus C5 (Macaca fascicularis) (cynomolgus (Macaca fascicularis), Beta and alpha chains are joined by disulfide bonds; the protein is a serum glycoprotein.)
T1 construct: also called cyno C5; cynoC5
T1 beta: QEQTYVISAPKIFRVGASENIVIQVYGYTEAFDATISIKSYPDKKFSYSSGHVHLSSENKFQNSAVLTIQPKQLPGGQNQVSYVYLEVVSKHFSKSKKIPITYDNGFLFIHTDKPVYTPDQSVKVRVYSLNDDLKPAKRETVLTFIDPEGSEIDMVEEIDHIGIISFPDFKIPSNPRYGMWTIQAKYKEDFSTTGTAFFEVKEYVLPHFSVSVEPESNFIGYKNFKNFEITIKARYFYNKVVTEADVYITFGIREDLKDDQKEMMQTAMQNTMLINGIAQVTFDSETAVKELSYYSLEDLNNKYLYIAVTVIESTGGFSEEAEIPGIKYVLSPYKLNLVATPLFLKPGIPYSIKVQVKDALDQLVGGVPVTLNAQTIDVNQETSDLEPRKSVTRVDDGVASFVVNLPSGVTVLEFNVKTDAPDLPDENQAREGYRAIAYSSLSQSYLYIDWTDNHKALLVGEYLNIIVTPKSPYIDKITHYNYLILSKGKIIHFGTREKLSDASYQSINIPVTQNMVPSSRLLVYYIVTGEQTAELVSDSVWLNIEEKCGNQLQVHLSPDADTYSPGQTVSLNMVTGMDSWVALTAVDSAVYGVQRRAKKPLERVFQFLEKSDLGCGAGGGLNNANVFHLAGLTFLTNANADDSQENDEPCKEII
T1 alpha: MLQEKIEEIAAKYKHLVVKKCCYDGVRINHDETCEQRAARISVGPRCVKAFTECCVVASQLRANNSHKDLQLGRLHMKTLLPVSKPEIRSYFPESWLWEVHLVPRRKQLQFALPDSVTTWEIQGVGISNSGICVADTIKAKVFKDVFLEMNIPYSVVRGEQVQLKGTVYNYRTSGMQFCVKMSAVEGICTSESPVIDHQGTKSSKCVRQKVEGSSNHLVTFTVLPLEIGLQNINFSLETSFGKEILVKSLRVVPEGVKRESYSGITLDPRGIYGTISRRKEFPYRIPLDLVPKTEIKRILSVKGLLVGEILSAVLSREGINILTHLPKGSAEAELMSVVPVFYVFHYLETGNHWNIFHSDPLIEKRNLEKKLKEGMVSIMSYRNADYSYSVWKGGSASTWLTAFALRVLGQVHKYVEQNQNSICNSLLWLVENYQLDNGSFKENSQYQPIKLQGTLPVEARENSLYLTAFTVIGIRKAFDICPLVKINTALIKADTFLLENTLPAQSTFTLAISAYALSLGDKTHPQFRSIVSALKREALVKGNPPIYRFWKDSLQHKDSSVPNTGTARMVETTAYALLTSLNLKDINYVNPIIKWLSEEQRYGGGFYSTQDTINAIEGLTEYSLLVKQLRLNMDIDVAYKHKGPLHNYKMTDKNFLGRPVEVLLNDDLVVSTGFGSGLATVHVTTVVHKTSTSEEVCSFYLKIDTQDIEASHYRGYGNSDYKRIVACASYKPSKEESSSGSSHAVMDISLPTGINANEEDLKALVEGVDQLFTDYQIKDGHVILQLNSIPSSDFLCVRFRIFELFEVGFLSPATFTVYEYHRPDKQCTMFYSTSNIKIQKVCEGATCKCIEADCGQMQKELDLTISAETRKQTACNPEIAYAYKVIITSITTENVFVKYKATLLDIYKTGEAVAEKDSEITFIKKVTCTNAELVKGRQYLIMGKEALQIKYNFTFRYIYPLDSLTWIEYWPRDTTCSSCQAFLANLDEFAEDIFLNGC

B1: MOR08114 (antibody, human IgG1, lambda, L234A L235A, V domains shown)
VH: EVQLVQSGAEVKKPGESLKISCKGSGYSFTSYYIGWVRQMPGKGLEWMGIIDPTDSQTAYSPSFQGQVTISADKSISTAYLQWSSLKASDTAMYYCARYMMRGFDHWGQGTLVTVSS
VL: SYELTQPPSVSVAPGQTARISCSGDSLGDYYAYWYQQKPGQAPVLVIYKDNNRPSGIPERFSGSNSGNTATLTISGTQAEDEADYYCQTWDTGESGVFGGGTKLTVLG
notes: Germlined final IgG, human IgG1AA format; also called Antibody 8114
B2: MOR07872 (Fab, V domains shown)
VH: B1 VH with E1Q, T54S, Q57H, A59T
VL: DIELTQPPSVSVAPGQTARISCSGDSLGDYYAYWYQQKPGQAPVLVIYKDNNRPSGIPERFSGSNSGNTATLTISGTQAEDEADYYCQTWDILPHGLVFGGGTKLTVLG
notes: light CS or A
B3: MOR07873 (Fab, V domains shown)
VH: B1 VH with E1Q, T54S, Q57H, A59T
VL: B2 VL with T89A, D91T, I92D, L93S, H95T
notes: light CS or A
B4: MOR07086 hu IgG1 (antibody, V domains shown)
VH: QVQLVQSGAEVKKPGSSVKVSCKASGGTFSSYAISWVRQAPGQGLEWMGGIGPFFGTANYAQKFQGRVTITADESTSTAYMELSSLRSEDTAVYYCARDTPYFDYWGQGTLVTVSS
VL: DIELTQPPSVSVAPGQTARISCSGDSIPNYYVYWYQQKPGQAPVLVIYDDSNRPSGIPERFSGSNSGNTATLTISGTQAEDEADYYCQSFDSSLNAEVFGGGTKLTVL
B5: MOR08111 (antibody, human IgG1, lambda, L234A L235A, V domains shown)
VH: EVTLKESGPALVKPTQTLTLTCTFSGFSLSTSGGGVSWIRQPPGKALEWLANIDDADIKDYSPSLKSRLTISKDTSKNQVVLTMTNMDPVDTATYYCARGPYGFDSWGQGTLVTVSS
VL: ESALTQPASVSGSPGQSITISCTGTSSDIGTYNYVSWYQQHPGKAPKLMIYDDSNRPSGVSNRFSGSKSGNTASLTISGLQAEDEADYYCQSYDSQSIVFGGGTKLTVLG
notes: Germlined final IgG, human IgG1AA format

How the values were obtained:
[1] = target: T2, human complement C5 protein (human, UniProt P01031 19-673; P01031 678-1676, Beta and alpha chains are joined by disulfide bonds. C5 was biotinylated in some assays.)
[2] = target: T2, human complement C5 protein; assay: SPR (Biacore), IgG captured via anti-human Fc, C5 injected
Description: (§1) A CM4 chip was coated with 50 μg/ml goat anti-human Fc antibody (500-2000 RU) in 10 mM acetate buffer, pH 4.5, using standard EDC-NHS amine coupling chemistry. Each anti-human C5 IgG was captured on the chip in HBS-EP buffer at constant flow rate of 10 μl/min for a contact time leading to a ligand density around 20 RU. […] Each cycle was completed with two regeneration steps with phosphoric acid. All running conditions were carried out at 25° C. in 1× HBS-EP buffer. The resulting signals were adjusted by double referencing, substracting the refraction index values from the reference flow cell and the binding step with no analyte. Data were collected at 10 Hz and analyzed using the Biacore T100 Evaluation Software Version 1.1 (GE). This program uses a global fitting analysis method for the determination of rate and affinity constants for each interaction. […]

[3] = target: cynomolgus C5 (Macaca fascicularis) (cynomolgus (Macaca fascicularis))
[4] = target: T2, human complement C5 protein; remark: listed apart in the source
[5] = target: T2, human complement C5 protein; assay: SET (MSD), IgG, 2nd measurement
Description: (§2) In order to improve the sensitivity and accuracy of the SET method, it was transferred from classical ELISA to ECL based technology (Haenel et al., Anal Biochem 339:182-184 (2005)).
(§3) 1 mg/ml goat-anti-human (Fab)₂ fragment specific antibodies (Dianova) were labelled with ECL Sulfo-TAG™ NHS-Ester (Meso Scale Discovery, Gaithersburg, Md., USA) according to the manufacturer's instructions. The experiments were carried out in polypropylene microliter plates and PBS pH 7.4 with 0.5% BSA and 0.02% Tween 20 as assay buffer. […] Wells without antigen were used to determine Bmax values; wells containing neither antigen nor IgG were used to determine background. After addition of e.g. 10 pM IgG (final concentration in 60 μl final volume), the mixture was incubated over night at RT. The applied IgG concentration was similar to or below the expected KD.
(§4) Streptavidin MSD plates were coated with 0.2 μg/ml biotinylated human C5 (30 μl/well) and blocked with 5% BSA in PBS. Subsequently the equilibrated samples were transferred to those plates (30 μl per well) and incubated for 20 min. After washing, 30 μl/well of the ECL Sulfo-tag labeled detection antibody (goat anti-human (Fab)₂) in a final dilution of 1:1500 was added to the MSD plate and incubated for 30 min on an Eppendorf shaker (700 rpm).

[6] = target: T2, human complement C5 protein; assay: SET (MSD), IgG, 1st measurement
Description: as §2, §3, §4

[7] = target: T2, human complement C5 protein; remark: listed apart in the source
[8] = target: T2, human complement C5 protein; remark: listed apart in the source
[9] = target: T1, cynomolgus C5 (Macaca fascicularis); assay: SPR (Biacore), IgG captured via anti-human Fc, C5 injected
Description: as §1

[10] = target: T2, human complement C5 protein; assay: cell-based or functional assay
[11] = target: T2, human complement C5 protein; assay: cell-based or functional assay; remark: listed apart in the source
[12] = target: T2, human complement C5 protein; assay: cell-based or functional assay; remark: listed apart in the source
[13] = target: T1, cynomolgus C5 (Macaca fascicularis); assay: SET (MSD), IgG, 2nd measurement
Description: as §2, §3, §4

[14] = target: T1, cynomolgus C5 (Macaca fascicularis); assay: SET (MSD), IgG, 1st measurement
Description: as §2, §3, §4

[15] = target: T1, cynomolgus C5 (Macaca fascicularis); assay: cell-based or functional assay
human complement C3 = target: T3, human complement C3 (human, UniProt P01024 23-667; P01024 672-1663); assay: solution ELISA: Fab with biotinylated antigen on NeutrAvidin plate, His-tag detection [huC3 panel]
T3 construct: Counter target in the ELISAs, coated directly or biotinylated; also called human C3
T3 sequence (P01024 23-667 limits assumed, chain 1 of 2): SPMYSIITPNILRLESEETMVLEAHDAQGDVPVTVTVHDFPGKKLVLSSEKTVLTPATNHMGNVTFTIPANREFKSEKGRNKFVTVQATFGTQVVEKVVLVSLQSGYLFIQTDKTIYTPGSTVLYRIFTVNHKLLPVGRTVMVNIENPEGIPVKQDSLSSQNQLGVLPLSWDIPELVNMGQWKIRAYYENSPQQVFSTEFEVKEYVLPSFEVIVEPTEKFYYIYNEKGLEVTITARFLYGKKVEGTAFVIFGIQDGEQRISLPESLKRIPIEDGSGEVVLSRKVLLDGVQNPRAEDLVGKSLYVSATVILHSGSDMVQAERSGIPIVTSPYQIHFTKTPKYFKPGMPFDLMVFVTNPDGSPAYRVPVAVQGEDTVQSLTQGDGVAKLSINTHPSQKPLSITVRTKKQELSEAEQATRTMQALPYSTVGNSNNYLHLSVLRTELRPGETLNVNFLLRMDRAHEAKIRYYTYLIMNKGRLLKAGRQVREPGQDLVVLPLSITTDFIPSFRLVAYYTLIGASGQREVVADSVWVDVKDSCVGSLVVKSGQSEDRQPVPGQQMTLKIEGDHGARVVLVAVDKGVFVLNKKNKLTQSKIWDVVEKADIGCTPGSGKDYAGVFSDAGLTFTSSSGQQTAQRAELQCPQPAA
T3 sequence (P01024 672-1663 limits assumed, chain 2 of 2): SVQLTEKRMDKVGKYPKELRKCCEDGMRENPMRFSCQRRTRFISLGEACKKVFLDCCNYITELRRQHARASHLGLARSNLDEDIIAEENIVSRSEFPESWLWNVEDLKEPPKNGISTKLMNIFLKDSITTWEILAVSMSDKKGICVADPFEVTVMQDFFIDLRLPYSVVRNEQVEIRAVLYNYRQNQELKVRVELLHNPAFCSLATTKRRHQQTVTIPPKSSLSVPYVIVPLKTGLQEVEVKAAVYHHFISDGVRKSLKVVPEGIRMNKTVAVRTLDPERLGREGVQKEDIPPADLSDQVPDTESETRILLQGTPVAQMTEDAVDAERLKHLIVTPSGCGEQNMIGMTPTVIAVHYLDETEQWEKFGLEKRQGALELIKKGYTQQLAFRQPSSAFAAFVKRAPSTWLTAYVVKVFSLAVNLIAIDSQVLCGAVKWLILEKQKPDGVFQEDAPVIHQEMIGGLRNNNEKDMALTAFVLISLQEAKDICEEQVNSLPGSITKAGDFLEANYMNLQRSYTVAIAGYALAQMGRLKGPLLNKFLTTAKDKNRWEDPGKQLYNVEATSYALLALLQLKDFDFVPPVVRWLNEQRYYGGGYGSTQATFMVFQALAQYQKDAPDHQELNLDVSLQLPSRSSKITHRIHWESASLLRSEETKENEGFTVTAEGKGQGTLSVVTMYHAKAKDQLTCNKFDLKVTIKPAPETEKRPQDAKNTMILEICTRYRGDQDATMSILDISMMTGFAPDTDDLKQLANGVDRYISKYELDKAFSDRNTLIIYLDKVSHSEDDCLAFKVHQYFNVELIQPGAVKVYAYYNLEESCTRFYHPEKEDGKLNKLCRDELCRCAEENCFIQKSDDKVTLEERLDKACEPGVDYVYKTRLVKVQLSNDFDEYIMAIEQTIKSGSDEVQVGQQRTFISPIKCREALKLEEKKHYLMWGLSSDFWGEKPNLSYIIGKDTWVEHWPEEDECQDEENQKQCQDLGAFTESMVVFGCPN
Description: Fabs were incubated with biotinylated antigen on a Neutravidin plate and detected via the histidin tag.

[16] = target: T1, cynomolgus C5 (Macaca fascicularis); assay: affinity chromatography

Molecule | Kd [2] [nM] | Kd [5] [nM] | Kd [6] [nM] | koff [2] [s⁻¹] | kon [2] [M⁻¹ s⁻¹] | Kd [9] [nM] | koff [9] [s⁻¹] | kon [9] [M⁻¹ s⁻¹] | IC50; hemolysis CP, 20% human serum [11] [nM] | Kd [13] [nM] | Kd [14] [nM] | IC50 (read off the curve); hemolysis CP, 5% cyno serum [15] [nM] | binding result (human complement C3) | also measured
5G1.1 (antibody) | 0.056 | 0.019 | 0.024 | – | – | – | – | – | – | – | – | – | – | IC50 (read off the curve); hemolysis AP, 100 pM human C5 [panel b] [1]: 90 pM; IC50; hemolysis AP, 100 pM cyno C5 in 20% human C5-depleted serum [panel a] [3]: 1.71 nM; IC50; hemolysis AP, 100 pM human C5 [panel a] [4]: 0.14 nM; IC50; hemolysis AP, 100 pM human C5 [panel c] [4]: 0.205 nM; IC50; hemolysis AP, 100 pM human C5 [panel i] [7]: 58.2 pM; IC50 (read off the curve); C5a ELISA on AP hemolysis supernatants, 20% human serum [panel d] [8]: 20 nM; IC50 (read off the curve); hemolysis AP, 20% human serum [panel c] [8]: 50 nM
B1 | 0.015 | 0.002 | 0.001 | 3.12e-05 | 2.09e+06 | 0.031 | 3.13e-05 | 1.06e+06 | 34.1 | 0.004 | 0.005 | ~30 | – | IC50 (read off the curve); hemolysis AP, 100 pM human C5 [panel c] [10]: ~20 pM; IC50 (read off the curve); hemolysis AP, 20% human serum [panel c] [12]: ~50 nM
B2 | – | – | – | – | – | – | – | – | – | – | – | – | no binding (tested: 100 nM) | –
B3 | – | – | – | – | – | – | – | – | – | – | – | – | no binding (tested: 100 nM) | –
B4 | – | – | – | – | – | – | – | – | – | – | – | – | – | binding result [16]: binds
B5 | 0.031 | 0.003 | 0.005 | 3.07e-05 | 1e+06 | 0.144 | 0.000128 | 891000 | 21.5 | 0.017 | 0.014 | ~20 | – | IC50 (read off the curve); hemolysis AP, 100 pM human C5 [panel a] [10]: ~0.1 nM
